From article PMC4059916

Biological target: VARP451-640His6 Q509A (human) (UniProt Q96NW4)
Test: ITC; Nano ITC; VARP constructs at 60 μM in the cell at 4°C, Rab constructs at 300 μM titrated, 24 injections of 2 μl; 50 mM HEPES pH 7.4, 200 mM NaCl, 5 mM MgCl2, 1 mM TCEP

Sequence of VARP451-640His6 Q509A (human) (Q96NW4 451-640 Q509A): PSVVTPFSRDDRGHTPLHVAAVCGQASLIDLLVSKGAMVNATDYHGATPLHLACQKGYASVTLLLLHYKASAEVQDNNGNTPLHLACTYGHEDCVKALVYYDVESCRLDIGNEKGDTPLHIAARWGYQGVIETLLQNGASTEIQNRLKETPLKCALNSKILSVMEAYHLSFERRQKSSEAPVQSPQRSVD

Kd: 30 µM
Substance: Rab32 1-225 (Q85L), GTP hydrolysis-defective mutant, GST removed (from UniProt Q13637 1-225) (enzyme)
